Measurements from PMC7855293 (Nature structural & molecular biology, 2020).
Read-outs that look alike come from different tables or passages of the source.

Tests used:
Test in all cases: cryo-EM structure
[1] = target: FAP385 (Chlamydomonas reinhardtii)
[2] = target: LC8 (RSP22) (Chlamydomonas reinhardtii)
[3] = target: RSP16 (Chlamydomonas reinhardtii)
cryo-EM structure [4] = target: the molecule itself
cryo-EM structure [5] = target: the molecule itself; remark: listed apart in the source

Which stoichiometry N [1] does the source give for FAP385 (natural protein) here?
The stoichiometry N was 2.

For LC8 (RSP22) (natural protein), which stoichiometry N [2] is on record?
The stoichiometry N was 2.

How did the stoichiometry N [3] turn out when RSP16 (natural protein) was run?
The stoichiometry N was 2.

B1: RSP9 (natural protein, Chlamydomonas reinhardtii, UniProt Q27YU5 1-269, looked up)
chain: MVQLEPNITLVLKHLASCGAVVSAEQQAALDHSIPIKRIEAGLRSLTLWGRLTTLNGKDYLVAEGYNVASSKEGAAVYETKYFYSQDGARWSDLQPVDSETATRCARIKGMLSGDPAKNYELEEKDPNAPEPSPEAEEEVKPLVFQIPELAVLRCRVDAIATATSVIPTDSTILNAASQVVPNRLFAGAAYPEKLESYQHRFSLPGSGVTLSQDLRGTWAVQYDAFKGVAQVRSLLFPGYFFYYAANELTWGSLYVGDGLRNNDLIFML
How did the “stoichiometry N” value (cryo-EM structure [4]) turn out when B1 was run?
Its value is 2.

B2: p28 (natural protein, Chlamydomonas reinhardtii, UniProt Q39604 1-253, looked up)
chain: MIPPLSSLVRYDNPVLVSTSKDKGKGAKGTPGKKGALPPVEQKPGLTQTEDILNSILPPREWTEDGQLWVQYVSSTPATRLDVINLQEKLDQQLQQRQARETGICPIREELYAQTFDELIRQVTINCAERGLLLLRVRDEMRMTIAAYQTLYESAVAFGIRKALQTEQGKSEMESRITQLEGDVKDLERQVQEWKFKCEAIEKRESERREVEAKKHKDEVAYLENYAKQLKQQLETFLVPAKKGAPGAPAAAT
Which “stoichiometry N” value (cryo-EM structure [5]) does the source give for B2 here?
The value was 2.

B3: DRC4 (natural protein, Chlamydomonas reinhardtii, UniProt Q7XJ96 1-471, looked up)
chain: MAPKKKGTKKESKKDAVATGDIEGASVEELNQKIGTLEKEKNKEEEYRNYMQLERDKINAFWEITKKDLEDRRAELRNKDREMEEMEERHQVEIKVYKQKVKHLLYEHQNNITTLKSDGELALKLQQDEYRKREGDLGKDKRNLKLELKEQELAHQDIIRQLKLEHAKEITKLRQEFEQQAKDLQSKYEKKMKMLRDDMELRRKQEIHEIEERKNTHINELMKKHERAFAEIKNYYNDITHNNLDLIKTLKEDVAEMKRREAANEKLMYEIAQDNKKLSEPLSRALKEVELLRQQLANYDKDKLSLAQTKARLLNAERQIKNLEWENEVLSQRFSKVQTERDELYGKFEASIYDVQQKTGLKSALLEKKVEALGEALEMKEAQLAEVLTAANLDPGTLAAINQRLEEVLDNKNQIIKALQYDVAKVSKAHNDLIRVYEAKLTEFGIPVDELGFRPLVTNTSTGPAGLVVGA
For B3, which “stoichiometry N” value (cryo-EM structure [5]) is on record?
The value was 2.
